Measured values from patent US11639503B2, “Anti-chymase aptamer and use for same” (RIBOMIC INC., priority 2017, dated 2023).
Oligonucleotides are written 5' to 3', each unit as a sugar letter and its base; * is a phosphorothioate linkage, no mark a phosphodiester; rarer units and linkages stand in square brackets, end groups in braces. Plain capitals give the bases only. r = 2'-OH (RNA); f = 2'-fluoro

T1: chymase (recombinant, manufactured by SIGMA) (Homo sapiens, UniProt P23946)
T1 construct: purchased SIGMA
T1 sequence (P23946 22-247): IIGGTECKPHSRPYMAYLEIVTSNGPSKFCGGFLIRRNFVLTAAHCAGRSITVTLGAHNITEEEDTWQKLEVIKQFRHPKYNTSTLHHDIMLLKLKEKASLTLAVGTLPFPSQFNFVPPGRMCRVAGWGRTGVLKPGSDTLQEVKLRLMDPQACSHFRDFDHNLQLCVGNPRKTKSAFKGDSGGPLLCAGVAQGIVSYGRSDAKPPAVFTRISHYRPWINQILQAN

T2: chymase purified from human skin mast cell (native, Calbiochem) (Homo sapiens, UniProt P23946)
T2 construct: Here, the native is chymase purified from human skin mast cell; purchased Calbiochem; host or cells: human skin mast cell (tissue-derived)
T2 sequence (P23946 22-247): T1 sequence (P23946 22-247)

B1: 6 (nucleic acid)
chain: rGrGrGrArGfCrArGrGrArGrArGrArGrGfUfCrArGrAfUrGfUfCrAfUrGrAfCfUfUrAfUrArGrGfUrArAfCfCrGrAfUrArAfUrGrGrGrGrGfCfCfUrAfUrGfCrGfUrGfCfUrArGfUrGfUrGrA
modifications: aptamer
B2: 4 (nucleic acid)
chain: rGrGrGrArGfCrArGrGrArGrArGrArGrGfUfCrArGrAfUrGfUrArAfCfUfCfUrAfUfUrGrArGrGrGrGfCrAfUfCrArGfCrAfCrArGfUrArGfCfCfUrAfUrGfCrGfUrGfCfUrArGfUrGfUrGrA
modifications: aptamer
B3: 2 (nucleic acid)
chain: rGrGrGrArGfCrArGrGrArGrArGrArGrGfUfCrArGrAfUrGrAfUfCrGrGrAfCrAfUrArAfCrAfUfUrGfUfUrGrGrGrGfUrGfUfCrArArGrGfCfCfUrAfUrGfCrGfUrGfCfUrArGfUrGfUrGrA
modifications: aptamer
B4: 5 (nucleic acid)
chain: rGrGrGrArGfCrArGrGrArGrArGrArGrGfUfCrArGrAfUrGrAfUrGrAfCfCrGrAfUfUrAfUrArGrGfUrArAfCfCrAfCfUfUrArGrGrGrGrGfCfCfUrAfUrGfCrGfUrGfCfUrArGfUrGfUrGrA
modifications: aptamer
B5: 8 (nucleic acid)
chain: rGrGrGrArGfCrArGrGrArGrArGrArGrGfUfCrArGrAfUrGrAfUfUrGrAfCrGrAfCfUrAfUrArGrGfUrArAfCfCfUfUfUrAfCrGrGrGrGrGfCfCfUrAfUrGfCrGfUrGfCfUrArGfUrGfUrGrA
modifications: aptamer
B6: 3 (nucleic acid)
chain: rGrGrGrArGfCrArGrGrArGrArGrArGrGfUfCrArGrAfUrGrAfUrArAfCfCrArGfUfUrGrGrGrGrGrGfUfCrArAfUfUrAfCrAfUrGrGrGrAfCfCfUrAfUrGfCrGfUrGfCfUrArGfUrGfUrGrA
modifications: aptamer
B7: 7 (nucleic acid)
chain: rGrGrGrArGfCrArGrGrArGrArGrArGrGfUfCrArGrAfUrGfUfUfUrGrGfUrArGfUrArAfCfUrGrGrArAfUrArGrGrGrGfCfUrAfCrArGrGfCfCfUrAfUrGfCrGfUrGfCfUrArGfUrGfUrGrA
modifications: aptamer
B8: 1 (nucleic acid)
chain: rGrGrGrArGfCrArGrGrArGrArGrArGrGfUfCrArGrAfUrGrArGfCrAfUrGfCfUfUfUfUfUrGrGfUrArAfCfCrGrAfUrArAfUrGrGrGrGrGfCfCfUrAfUrGfCrGfUrGfCfUrArGfUrGfUrGrA
modifications: aptamer

Experiments:
[1] = molecular target: T1, chymase (recombinant, manufactured by SIGMA); test: chymase enzyme activity inhibition, synthetic substrate Suc-Ala-Ala-Pro-Phe-MCA; assay type: biochemical
Procedure: A first method employs a synthetic substrate. A useful chymase substrate is Suc-Ala-Ala-Pro-Phe-MCA (4-methylcoumaryl-7-amide group) (manufactured by Peptide Institute, Inc.), which contains the 4-amino acid peptide “Ala-Ala-Pro-Phe” (SEQ ID NO: 41), a standard substrate for chymotrypsin-like proteases.
The assay is performed using a 96-well plate (F16 Black Maxisorp Fluoronunc, manufactured by Nunc), with a reaction mixture volume of 100 μL, in a buffer solution (solution C; see Example 2 below). First, each nucleic acid is prepared in solution C to obtain 50 μL solutions. After 10 μL of the 1 mM substrate prepared in solution C is added, the plate is set to the microplate reader SpectraMax190 (manufactured by Molecular Devices Corporation), and incubated at 37° C. for 5 minutes. Separately, 0.05 μg of chymase (recombinant, manufactured by SIGMA) is diluted in solution C, and 40 μL of this dilution is incubated at 37° C. for 5 minutes. The chymase solution is added to the mixture of the nucleic acid and substrate to initiate an enzyme reaction. The plate containing the reaction mixture is set to the microplate reader SpectraMax190 (manufactured by Molecular Devices Corporation), and examined for time-dependent changes in the fluorescence intensity at 37° C. for 5 minutes (excitation wavelength 380 nm, detection wavelength 460 nm). A linear approximation of the increase in the fluorescence of the AMC (7-amino-4-methylcoumarine) released from the substrate by chymase activity is generated, and its slope is taken as the initial reaction velocity. For control, samples are treated and analyzed in the same manner in two cases: use of a nucleic acid pool containing a random sequence of 30 or 40 nucleotides (negative control), and use of chymostatin, a known chymotrypsin-like serine protease inhibitor (positive control). Taking the initial reaction velocity without the nucleic acid and inhibitor as a 100% enzyme activity, the inhibitory rate for each test substance is calculated, and the inhibitor concentration required to cause a 50% inhibition of the enzyme activity (IC50) is determined.
Whether the nucleic acids shown by SEQ ID NO: 1-8 inhibit the enzyme activity of chymase was determined as described below. The chymase substrate used was Suc-Ala-Ala-Pro-Phe-MCA (manufactured by Peptide Institute, Inc.), which contains the 4-amino-acid peptide Ala-Ala-Pro-Phe, a standard substrate for chymotrypsin-like proteases. Here, Suc is a protecting succinyl group, and MCA is a 4-methylcoumaryl-7-amide group; upon cleavage of the C-terminal side of phenylalanine, AMC (7-amino-4-methylcoumarine) is released. By detecting the fluorescence of this AMC, the enzyme activity of chymase can be determined. The assay was performed using a 96-well plate (F16 Black Maxisorp Fluoronunc, manufactured by Nunc), with a reaction mixture volume of 100 μL, in solution C as a buffer solution. Here, the solution C is a mixed solution of 145 mM sodium chloride, 5.4 mM potassium chloride, 1.8 mM calcium chloride, 0.8 mM magnesium chloride, 20 mM Tris (pH 7.6), and 0.05% Tween20. First, nucleic acid was serially diluted in solution C to obtain 50 μL solutions. After 10 μL of the 1 mM substrate prepared in solution C was added thereto, the plate was set to the microplate reader SpectraMax190 (manufactured by Molecular Devices Corporation), and incubated at 37° C. for 5 minutes. […] The chymase solution was added to the mixture of the nucleic acid and substrate to initiate an enzyme reaction. The final chymase concentration in the reaction mixture was 16.7 nM, the final substrate concentration being 100 μM. The plate containing the reaction mixture was set to the microplate reader SpectraMax190 (manufactured by Molecular Devices Corporation), and examined for time-dependent changes in the fluorescence intensity at 37° C. for 5 minutes (or 30 minutes) (excitation wavelength 380 nm, detection wavelength 460 nm). […]

[2] = molecular target: T2, chymase purified from human skin mast cell (native, Calbiochem); test: chymase enzyme activity inhibition, native substrate angiotensin I (His-Leu fluorescence); assay type: biochemical; details: mean of 2 or 3 measurements
Procedure: A second method of evaluation employs a native substrate. A useful native substrate for chymase is angiotensin I. Here, His-Leu, a peptide fragment released upon degradation of angiotensin I, is fluorescently derivatized, and the fluorescence intensity therefrom is quantified.
In the assay, an enzyme reaction is carried out in 50 μL of solution C. First, 0.3-0.75 ng of chymase (recombinant, manufactured by SIGMA; or native, manufactured by Calbiochem) is diluted in solution C to obtain 5 μL chymase solution. Each nucleic acid is prepared in solution C to obtain 25 μL solutions. 5 μL of each chymase dilution and 25 μL of each nucleic acid solution are mixed, and then the mixture is incubated at 37° C. for 5 minutes. Separately, 20 μL of 125 μM angiotensin I (manufactured by Peptide Institute, Inc.) is prepared in solution C and incubated at 37° C. for 5 minutes. The angiotensin I solution is added to the mixture of chymase and nucleic acid, and the enzyme reaction is initiated. After the reaction was allowed to proceed at 37° C. for 90 minutes, 25 μL of ice-cooled 30% trichloroacetic acid solution is added to terminate the reaction. The entire mixture is centrifuged at 4° C., 14000 rpm for 10 minutes, and 30 μL of the resulting supernatant is used for the subsequent reaction for fluorescent derivatization.
After 30 μL of the supernatant is added to a 96-well plate (Black, manufactured by Costar), 15 μL of 2% o-phthalaldehyde (manufactured by SIGMA) solution in methanol and 170 μL of 0.3M NaOH solution are mixed in each well, and the plate is allowed to stand at room temperature for 10 minutes. Subsequently, 25 μL of 3M HCl solution is added to terminate the reaction. The plate is set to the microplate reader SpectraMax190 (manufactured by Molecular Devices Corporation), and the fluorescence intensity is determined at an excitation wavelength of 355 nm and a fluorescence wavelength of 460 nm.
For control, samples are treated and analyzed in the same manner in two cases: use of SEQ ID NO: 58 (negative control) and use of chymostatin, a known chymotrypsin-like serine protease inhibitor (positive control). In both cases, fluorescence intensity obtained at 0 minute reaction time serves as a blank determination. Taking the fluorescence intensity detected with the addition of an equal volume of solution C, in place of each nucleic acid, in the chymase enzyme reaction as 100%, the inhibitory rate for each test substance is calculated, and the inhibitor concentration required to cause a 50% inhibition of the enzyme activity (IC50) is determined.
Whether the nucleic acids shown by SEQ ID NO: 9 and 10 inhibit the enzyme activity of chymase was determined by the following method. Angiotensin I is converted by chymase to angiotensin II, during which a peptide fragment His-Leu is released. Since the peptide His-Leu is fluorescently derivatized by o-phthalaldehyde, its fluorescence intensity can be quantitatively measured.
The total volume of solution for an enzyme reaction in the assay was set to 50 μL, and the reaction was performed in solution C buffer. At first, native (manufactured by Calbiochem) was diluted with solution C to give 5 μL thereof. Here, the native is chymase purified from human skin mast cell. The nucleic acid was serially diluted with solution C at a concentration of 0.0027-2 μM to give 25 μL thereof. The chymase solution (5 μL) and the nucleic acid solution (25 μL) were mixed, and the mixture was incubated at 37° C. for 5 min. On the other hand, […] angiotensin I (manufactured by PEPTIDE INSTITUTE, INC.) was prepared in solution C to give 20 μL thereof, which was incubated at 37° C. for 5 min. The angiotensin I solution was added to a mixture of chymase and nucleic acid to start an enzyme reaction. The final chymase concentration of the reaction solution was 0.5 nM, and the final substrate concentration was 50 μM. […]

[3] = Table 5, MCA substrate, amount of chymase 0.005 μg instead of 0.05 μg, one measurement
[4] = Table 1, substrate Suc-Ala-Ala-Pro-Phe-MCA 100 μM, chymase 0.05 μg (16.7 nM), 37° C., mean of 2 or 3 measurements

| Molecule | IC50 [1, 4] | further results |
| --- | --- | --- |
| 24 (GGCAGAUGAUCGGACAUAACAUAGAUAGAGUUAAAAUGGGGUGUCAA; 2'-fluoro at CU, RNA at AG, backbone not given here) [compound 24] | – | IC50 [1, 3]: 3.7 nM |
| CC(C)C[C@H](NC(=O)[C@@H](NC(=O)N[C@@H](Cc1ccccc1)C(=O)O)[C@@H]1CCN=C(N)N1)C(=O)N[C@H](C=O)Cc1ccccc1 [chymostatin, reference compound] | 100 to 200 nM | IC50 ([2]; Table 2, substrate angiotensin I 50 μM, chymase 0.5 nM, 37° C. 90 min): 350 to 500 nM |
| 21 (GGCAGAUGAUCGGACAUAACAGGUUAGAUAGAGUUAAAAACCUGGGGUGUCAA; 2'-fluoro at CU, RNA at AG, backbone not given here) [compound 21] | – | IC50 [1, 3]: 5.7 nM |
| 25 (GGCAGAUGAUCGGACAUAACAAGAUAGAGUUAAAUGGGGUGUCAA; 2'-fluoro at CU, RNA at AG, backbone not given here) [compound 25] | – | IC50 [1, 3]: 5.8 nM |
| B1 | 5.5 nM | – |
| B2 | 10.8 nM | – |
| B3 | 31 nM | IC50 ([2]; Table 3, angiotensin I as substrate, >1 = no inhibitory activity up to 1 μM): 10 nM; IC50 ([2]; Table 4, angiotensin I as substrate): 10 nM; IC50 ([2]; Table 6, angiotensin I as substrate): 10 nM |
| B4 | 7 nM | – |
| B5 | 35 nM | – |
| B6 | 26 nM | – |
| B7 | 52 nM | – |
| B8 | 41 nM | – |
